Among the data in patent US5861377, “Antistasin type serine protease inhibitors” (Novartis AG, dated 1999) are Ki values, retold here.

No end group written: not given here.

Usually Ki stands for the equilibrium dissociation constant of an inhibitor or competing ligand from its target.

Targets include bovine chymotrypsin (bovine, UniProt P00766); human cathepsin G (human, UniProt P08311); human plasmin (human, UniProt P00747); bovine trypsin (bovine, UniProt P00760).
Test in all cases: enzyme inhibition at equilibrium, steady state velocities fitted to the equation for tight binding inhibitors
The target in test [1] is porcine tissue kallikrein (porcine, UniProt P00752).

B1: hirustasin (Hirudo antistasin) (other)
chain: TQGNTCGGETCSAAQVCLKGKCVCNEVHCRIRCKYGLKKDENGCEYPCSCAKASQ
modifications: not fully specified; cysteine pairing not given here
For B1, the Ki in the test with bovine chymotrypsin turned out to be 6.4 nM; in test [1], 13 nM; with human cathepsin G, 2.9 nM; in the test with human plasmin, 138 nM; with bovine trypsin, 7 nM.
